Experimental data from patent US20220213462A1.

Biological target: peptide VWF73 (FRET substrate encompassing the ADAMTS13 recognition site of von Willebrand factor) (UniProt P04275)
Test: cell-based or functional assay
Details: scale: µL of normal human plasma equivalent per 200,000 cells

peptide VWF73 (FRET substrate encompassing the ADAMTS13 recognition site of von Willebrand factor), sequence (P04275 1596-1668 limits assumed): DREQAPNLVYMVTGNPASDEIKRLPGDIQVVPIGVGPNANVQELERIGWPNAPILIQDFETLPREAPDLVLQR

GPI-ADAMTS13 (AD5): first 745 amino acids of human ADAMTS13 fused to the DAF GPI anchor sequence (from UniProt Q76LX8 75-745) (enzyme)
VWF73 FRET assay, ADAMTS13 enzymatic activity (K562 cells): 10
VWF73 FRET assay, ADAMTS13 enzymatic activity (iPSC-derived erythroid cells): 10
